# Legend:
# [1] = biological target: Mut1T110N biotin labeled HCV core peptide (hepatitis C virus); assay: capture EIA; Ab 0.977 ng/mL; bt-peptide 500 ng/mL
# [2] = biological target: 92-133 biotin labeled HCV core peptide (hepatitis C virus) (UniProt Q9WMX2); assay: capture EIA; Ab 0.977 ng/mL; bt-peptide 500 ng/mL
# [3] = biological target: Mut6T110S biotin labeled HCV core peptide (hepatitis C virus); assay: capture EIA; Ab 0.977 ng/mL; bt-peptide 500 ng/mL
# [4] = biological target: C113T109N biotin labeled HCV core peptide (hepatitis C virus); assay: capture EIA; Ab 0.977 ng/mL; bt-peptide 500 ng/mL
# [5] = biological target: Mut1T110N biotin labeled HCV core peptide (hepatitis C virus); assay: capture EIA; Ab 250 ng/mL; bt-peptide 500 ng/mL
# [6] = biological target: 92-133 biotin labeled HCV core peptide (hepatitis C virus) (UniProt Q9WMX2); assay: capture EIA; Ab 250 ng/mL; bt-peptide 500 ng/mL
# [7] = biological target: Mut6T110S biotin labeled HCV core peptide (hepatitis C virus); assay: capture EIA; Ab 250 ng/mL; bt-peptide 500 ng/mL
# [8] = biological target: C113T109N biotin labeled HCV core peptide (hepatitis C virus); assay: capture EIA; Ab 250 ng/mL; bt-peptide 500 ng/mL
# [9] = biological target: Mut1T110N biotin labeled HCV core peptide (hepatitis C virus); assay: capture EIA; Ab 2000 ng/mL; bt-peptide 500 ng/mL
# [10] = biological target: 92-133 biotin labeled HCV core peptide (hepatitis C virus) (UniProt Q9WMX2); assay: capture EIA; Ab 2000 ng/mL; bt-peptide 500 ng/mL
# [11] = biological target: Mut6T110S biotin labeled HCV core peptide (hepatitis C virus); assay: capture EIA; Ab 2000 ng/mL; bt-peptide 500 ng/mL
# [12] = biological target: C113T109N biotin labeled HCV core peptide (hepatitis C virus); assay: capture EIA; Ab 2000 ng/mL; bt-peptide 500 ng/mL
# [13] = biological target: Mut1T110N biotin labeled HCV core peptide (hepatitis C virus); assay: capture EIA; Ab 125 ng/mL; bt-peptide 500 ng/mL
# [14] = biological target: 92-133 biotin labeled HCV core peptide (hepatitis C virus) (UniProt Q9WMX2); assay: capture EIA; Ab 125 ng/mL; bt-peptide 500 ng/mL
# [15] = biological target: Mut6T110S biotin labeled HCV core peptide (hepatitis C virus); assay: capture EIA; Ab 125 ng/mL; bt-peptide 500 ng/mL
# [16] = biological target: C113T109N biotin labeled HCV core peptide (hepatitis C virus); assay: capture EIA; Ab 125 ng/mL; bt-peptide 500 ng/mL
# [17] = biological target: Mut1T110N biotin labeled HCV core peptide (hepatitis C virus); assay: capture EIA; Ab 31.25 ng/mL; bt-peptide 500 ng/mL
# [18] = biological target: 92-133 biotin labeled HCV core peptide (hepatitis C virus) (UniProt Q9WMX2); assay: capture EIA; Ab 31.25 ng/mL; bt-peptide 500 ng/mL
# [19] = biological target: Mut6T110S biotin labeled HCV core peptide (hepatitis C virus); assay: capture EIA; Ab 31.25 ng/mL; bt-peptide 500 ng/mL
# [20] = biological target: C113T109N biotin labeled HCV core peptide (hepatitis C virus); assay: capture EIA; Ab 31.25 ng/mL; bt-peptide 500 ng/mL
# [21] = biological target: Mut1T110N biotin labeled HCV core peptide (hepatitis C virus); assay: capture EIA; Ab 62.5 ng/mL; bt-peptide 500 ng/mL
# [22] = biological target: 92-133 biotin labeled HCV core peptide (hepatitis C virus) (UniProt Q9WMX2); assay: capture EIA; Ab 62.5 ng/mL; bt-peptide 500 ng/mL
# [23] = biological target: Mut6T110S biotin labeled HCV core peptide (hepatitis C virus); assay: capture EIA; Ab 62.5 ng/mL; bt-peptide 500 ng/mL
# [24] = biological target: C113T109N biotin labeled HCV core peptide (hepatitis C virus); assay: capture EIA; Ab 62.5 ng/mL; bt-peptide 500 ng/mL
# [25] = biological target: Mut1T110N biotin labeled HCV core peptide (hepatitis C virus); assay: capture EIA; Ab 500 ng/mL; bt-peptide 500 ng/mL
# [26] = biological target: 92-133 biotin labeled HCV core peptide (hepatitis C virus) (UniProt Q9WMX2); assay: capture EIA; Ab 500 ng/mL; bt-peptide 500 ng/mL
# [27] = biological target: Mut6T110S biotin labeled HCV core peptide (hepatitis C virus); assay: capture EIA; Ab 500 ng/mL; bt-peptide 500 ng/mL
# [28] = biological target: C113T109N biotin labeled HCV core peptide (hepatitis C virus); assay: capture EIA; Ab 500 ng/mL; bt-peptide 500 ng/mL
# [29] = biological target: Mut1T110N biotin labeled HCV core peptide (hepatitis C virus); assay: capture EIA; Ab 7.813 ng/mL; bt-peptide 500 ng/mL
# [30] = biological target: 92-133 biotin labeled HCV core peptide (hepatitis C virus) (UniProt Q9WMX2); assay: capture EIA; Ab 7.813 ng/mL; bt-peptide 500 ng/mL
# [31] = biological target: Mut6T110S biotin labeled HCV core peptide (hepatitis C virus); assay: capture EIA; Ab 7.813 ng/mL; bt-peptide 500 ng/mL
# [32] = biological target: C113T109N biotin labeled HCV core peptide (hepatitis C virus); assay: capture EIA; Ab 7.813 ng/mL; bt-peptide 500 ng/mL
# [33] = biological target: Mut1T110N biotin labeled HCV core peptide (hepatitis C virus); assay: capture EIA; Ab 15.625 ng/mL; bt-peptide 500 ng/mL
# [34] = biological target: 92-133 biotin labeled HCV core peptide (hepatitis C virus) (UniProt Q9WMX2); assay: capture EIA; Ab 15.625 ng/mL; bt-peptide 500 ng/mL
# [35] = biological target: Mut6T110S biotin labeled HCV core peptide (hepatitis C virus); assay: capture EIA; Ab 15.625 ng/mL; bt-peptide 500 ng/mL
# [36] = biological target: C113T109N biotin labeled HCV core peptide (hepatitis C virus); assay: capture EIA; Ab 15.625 ng/mL; bt-peptide 500 ng/mL
# [37] = biological target: Mut1T110N biotin labeled HCV core peptide (hepatitis C virus); assay: capture EIA; Ab 15.6 ng/mL; bt-peptide 500 ng/mL (summary of Table 7)
# [38] = biological target: 92-133 biotin labeled HCV core peptide (hepatitis C virus) (UniProt Q9WMX2); assay: as above
# [39] = biological target: Mut6T110S biotin labeled HCV core peptide (hepatitis C virus); assay: as above
# [40] = biological target: C113T109N biotin labeled HCV core peptide (hepatitis C virus); assay: as above
# [41] = biological target: Mut1T110N biotin labeled HCV core peptide (hepatitis C virus); assay: capture EIA; Ab 3.906 ng/mL; bt-peptide 500 ng/mL
# [42] = biological target: 92-133 biotin labeled HCV core peptide (hepatitis C virus) (UniProt Q9WMX2); assay: capture EIA; Ab 3.906 ng/mL; bt-peptide 500 ng/mL
# [43] = biological target: Mut6T110S biotin labeled HCV core peptide (hepatitis C virus); assay: capture EIA; Ab 3.906 ng/mL; bt-peptide 500 ng/mL
# [44] = biological target: C113T109N biotin labeled HCV core peptide (hepatitis C virus); assay: capture EIA; Ab 3.906 ng/mL; bt-peptide 500 ng/mL
# [45] = biological target: Mut1T110N biotin labeled HCV core peptide (hepatitis C virus); assay: capture EIA; Ab 1000 ng/mL; bt-peptide 500 ng/mL
# [46] = biological target: 92-133 biotin labeled HCV core peptide (hepatitis C virus) (UniProt Q9WMX2); assay: capture EIA; Ab 1000 ng/mL; bt-peptide 500 ng/mL
# [47] = biological target: Mut6T110S biotin labeled HCV core peptide (hepatitis C virus); assay: capture EIA; Ab 1000 ng/mL; bt-peptide 500 ng/mL
# [48] = biological target: C113T109N biotin labeled HCV core peptide (hepatitis C virus); assay: capture EIA; Ab 1000 ng/mL; bt-peptide 500 ng/mL
# [49] = biological target: Mut1T110N biotin labeled HCV core peptide (hepatitis C virus); assay: capture EIA; Ab 1.953 ng/mL; bt-peptide 500 ng/mL
# [50] = biological target: 92-133 biotin labeled HCV core peptide (hepatitis C virus) (UniProt Q9WMX2); assay: capture EIA; Ab 1.953 ng/mL; bt-peptide 500 ng/mL
# [51] = biological target: Mut6T110S biotin labeled HCV core peptide (hepatitis C virus); assay: capture EIA; Ab 1.953 ng/mL; bt-peptide 500 ng/mL
# [52] = biological target: C113T109N biotin labeled HCV core peptide (hepatitis C virus); assay: capture EIA; Ab 1.953 ng/mL; bt-peptide 500 ng/mL
substance,measurement,setting,value
C11-3 (ABT-4) monoclonal antibody,signal at 492 nm,[1],0.0755 A492
same,signal at 492 nm,[2],0.116 A492
same,signal at 492 nm,[3],0.101 A492
same,signal at 492 nm,[4],0.104 A492
same,signal at 492 nm,[5],0.0857 A492
same,signal at 492 nm,[6],1.68 A492
same,signal at 492 nm,[7],1.83 A492
same,signal at 492 nm,[8],0.0963 A492
same,signal at 492 nm,[9],0.0915 A492
same,signal at 492 nm,[10],1.45 A492
same,signal at 492 nm,[11],1.73 A492
same,signal at 492 nm,[12],0.0707 A492
same,signal at 492 nm,[13],0.127 A492
same,signal at 492 nm,[14],1.83 A492
same,signal at 492 nm,[15],2.02 A492
same,signal at 492 nm,[16],0.147 A492
same,signal at 492 nm,[17],0.107 A492
same,signal at 492 nm,[18],1.55 A492
same,signal at 492 nm,[19],1.54 A492
same,signal at 492 nm,[20],0.16 A492
same,signal at 492 nm,[21],0.155 A492
same,signal at 492 nm,[22],1.92 A492
same,signal at 492 nm,[23],2.11 A492
same,signal at 492 nm,[24],0.202 A492
same,signal at 492 nm,[25],0.0765 A492
same,signal at 492 nm,[26],1.95 A492
same,signal at 492 nm,[27],2.24 A492
same,signal at 492 nm,[28],0.0882 A492
same,signal at 492 nm,[29],0.0966 A492
same,signal at 492 nm,[30],0.562 A492
same,signal at 492 nm,[31],0.344 A492
same,signal at 492 nm,[32],0.119 A492
same,signal at 492 nm,[33],0.11 A492
same,signal at 492 nm,[34],1.01 A492
same,signal at 492 nm,[35],0.807 A492
same,signal at 492 nm,[36],0.116 A492
same,signal at 492 nm,[37],0.11 A492
same,signal at 492 nm,[38],1.01 A492
same,signal at 492 nm,[39],0.807 A492
same,signal at 492 nm,[40],0.116 A492
same,signal at 492 nm,[41],0.079 A492
same,signal at 492 nm,[42],0.183 A492
same,signal at 492 nm,[43],0.227 A492
same,signal at 492 nm,[44],0.0833 A492
same,signal at 492 nm,[45],0.0721 A492
same,signal at 492 nm,[46],1.87 A492
same,signal at 492 nm,[47],2.15 A492
same,signal at 492 nm,[48],0.0806 A492
same,signal at 492 nm,[49],0.0854 A492
same,signal at 492 nm,[50],0.134 A492
same,signal at 492 nm,[51],0.0964 A492
same,signal at 492 nm,[52],0.114 A492

# Source: patent publication US20190170753A1
